T1: Sec3 (S. cerevisiae, UniProt P33332 1-1336)
T1 sequence: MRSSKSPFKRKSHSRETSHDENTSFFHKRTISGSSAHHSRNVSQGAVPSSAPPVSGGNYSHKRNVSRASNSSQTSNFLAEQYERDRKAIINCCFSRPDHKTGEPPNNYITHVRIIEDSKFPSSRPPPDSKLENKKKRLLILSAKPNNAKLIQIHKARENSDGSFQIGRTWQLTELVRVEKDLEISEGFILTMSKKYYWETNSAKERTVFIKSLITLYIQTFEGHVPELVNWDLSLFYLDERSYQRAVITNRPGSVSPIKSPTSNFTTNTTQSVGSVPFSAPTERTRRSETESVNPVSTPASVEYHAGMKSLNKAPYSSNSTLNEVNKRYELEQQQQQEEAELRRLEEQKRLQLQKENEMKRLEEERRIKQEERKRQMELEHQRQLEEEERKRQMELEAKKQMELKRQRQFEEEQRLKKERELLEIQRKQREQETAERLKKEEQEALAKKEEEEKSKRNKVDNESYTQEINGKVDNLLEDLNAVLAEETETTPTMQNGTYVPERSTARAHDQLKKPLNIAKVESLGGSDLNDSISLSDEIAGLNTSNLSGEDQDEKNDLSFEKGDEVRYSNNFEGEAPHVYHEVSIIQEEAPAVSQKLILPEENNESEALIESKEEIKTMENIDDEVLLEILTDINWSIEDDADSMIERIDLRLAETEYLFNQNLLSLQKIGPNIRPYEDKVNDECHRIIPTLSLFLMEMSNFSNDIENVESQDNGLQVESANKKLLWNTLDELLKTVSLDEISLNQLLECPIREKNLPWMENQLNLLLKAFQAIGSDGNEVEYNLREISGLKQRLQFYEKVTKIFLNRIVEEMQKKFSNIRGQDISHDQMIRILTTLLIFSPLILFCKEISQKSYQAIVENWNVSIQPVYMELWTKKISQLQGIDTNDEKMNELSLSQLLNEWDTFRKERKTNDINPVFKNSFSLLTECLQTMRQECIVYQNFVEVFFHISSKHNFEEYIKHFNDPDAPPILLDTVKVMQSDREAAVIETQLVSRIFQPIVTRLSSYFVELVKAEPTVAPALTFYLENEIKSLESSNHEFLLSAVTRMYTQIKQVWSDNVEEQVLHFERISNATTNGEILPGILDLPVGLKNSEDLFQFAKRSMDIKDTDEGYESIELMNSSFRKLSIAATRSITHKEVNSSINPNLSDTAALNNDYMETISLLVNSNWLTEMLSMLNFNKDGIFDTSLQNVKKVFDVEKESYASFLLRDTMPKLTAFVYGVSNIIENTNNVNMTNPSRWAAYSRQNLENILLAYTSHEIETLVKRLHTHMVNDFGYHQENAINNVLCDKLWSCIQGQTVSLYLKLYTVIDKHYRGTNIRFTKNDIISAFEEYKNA

B1: Sec5 (natural protein)
chain: MDRFQIGDEQLLRFYQLKTINPTHSWAQDSSKLNNEEATSNELGVETSFDILKDFKYGNQISIDKESRAYLNDESLSYIRDPLNGQEMSKELQHLPNDSMRLNYLVNSKQFNVKAFLRDMHKQDSFNDLNNSLDRLDSDIQDQSIHLKQLVGKNFTKYVKIKNKLDQIYKEFDEKTNEKNQCDSPKENQINVESLNKKVDEVIRTTTFKLKPLMDNYQKILNYQATKKFIELNKFYFNLPKSLKRCLTNNDFNEFIIEYSKGLTLRRRFNQSSDASQSLVIKRIWTQIENLLVTYKDLIWNSLINSNFNIDQPQETILSLFSKLLNLENFINNNQRESESGNKNTTSSSNENPILRWMSIKMNGFQNELNELSGHMISKIIHSQRLILQNNTNQDKSQGCVELSYYLKINQLFQIISDTGKDSEGLKSTVEPNKVNTISGTSYLNLNCQPSSQGLTDSPTIIEMWLLILKYINDLWKICDQFIEFWEHIEKFLDGTYQNSIINEKRKENILIGDSNIIESYQKSLILKEEQINEVRLKGEEFITSVSQNLISFFTSSQSSLPSSLKDSTGDITRSNKDSGSPLDYGFIPPNCNGLSCLRYLPKIVEPILKFSTELAQLNITTNGITICRNTLSTIINRCVGAISSTKLRDISNFYQLENWQVYETVTFSSKSQDSSKNLTFEYGVTQFPEIVTSFQEVSIKTTRDLLFAYEKLPIINGISVVSYPSKQLLTGIEIQQIISMEAVLEAILKNAAKDKDNPRNSHTILTLTNLQYFRECAFPNILQYFDDAFEWNLASKNLELFSLLSKMESSIFGNYLSDLKINLRDTLEEKFHEINWPMYTSNSFRVGDYIIEALMILIVVHSECFRIGPQLIHKILIETQIFIARYLFEAFKPYVGNLSNDGSLQIIVDLEFFQKVMGPLLEKDTEATLRACLQNCFQNDTNRLQKCINEINPIVSANLKRTAIQFAAFS
B2: Sec15 (natural protein)
chain: MDQEGQPLLSKDFQQVLLATASGNNSSWTERAVLNNESTDAVKHEPALGQNDVFDLDPLSFDKWVPFLRRALDKNQLDPVIDELENSIEDNFQGLELQLLQDSQMNDKLETSIDEIANIQGMVQDTLSSEISKFQIRLSESANELIVKKQMYVNNKKISLKISEATILITKVVRILELSSKCQELITERKFFKVLQNLDSLEKLYLQEFKNYNFQFLIEIYNSIPFLQKVTKDECINLIRNSLNLNLGKNLIKVGQEFVAIYENELLPQWLETRSKMKLTNFKFNSPIEISMRDESFLAKLNLGEFFQLDDFHDSIMIFQNLNELSVLSGEFNKEYELRKTKLMYPLIWKKNKTAAYQMDSLLRGTGTTPGSTAHDVSTDDPFTQSLSLHFLQDYFLKILGFLLYDINLNKATEFILVDNNYNSTNEFWDGLMDRLSPYLSYFIDEKLKTEEDMIKLKDFLCIYVAILENFKLNIEPLYKILVSIFEKFCSVSLRAFDDEFQILLNDDDFMPLSINDKTLYEKVLKICWMKEGEHLSLPDPTNGEPFAVTLPFSPLYPMTCTLAKKTYSKITAFLSIFYRHELHTLNNILVKTMDDIFNDIVNKKIRSKLESTSREEIAQILVNLDYFIIAAKEFSNFMTRENILQNPDMEIRLSSIKYLAESRKLAETKLIELIDSKISDILETIEIDWQITEVRQDPDISIIDLAQFLEMMFASTLQNLPYSVQTLLIFREFDSLTRQFMGLLLHDTPSTITHESIMNFEVDVNYLESIIPRIFPSTPGTIDSNGYQSPMTPSTPTFPNANGVDAPTLFENNIKSLEATFMELKQCIELLKTQGKDYNEPEIRLRKYSRIRQEDAALLLSKIQHFVSSVEGANGDDTSVMDSSSIFNSESASVIDSNTSRIAKFFNRR
B3: Sec8 (natural protein)
chain: MDYLKPAQKGRRRGLSINSLSETQQSAMNSSLDHLQNDLNRINLQWNRILSDNTNPLELALAFLDDTSVGLGHRYEEFNQLKSQIGSHLQDVVNEHSQVFNTNVASYGKAVSSIMQAQEQTLNLKNCLKEANEKITTDKGSLQELNDNNLKYTKMIDVLVNIEELLQIPEKIEENIRKENFHQVQILLERGFILMNNKSLKTVEILKPINQQLELQEHLLFNNLIEEIHDIMYSKSNKTNFTRVTNNDIFKIISISHNGFTSLENYLYNIVNIDIMEHSKTINKNLEQFIHDQSLNKGNIMLQENAATQAPLAPSRNQENEGFNRIGFLLKTINNINKLPVAFNIITERAKEEIHNIIVKSTESIRSKHPSLLKMATSLKNDNHFGLPVQDILSIILRECFWEIFLKLLYAIQCHRAIFEMSNILQPTSSAKPAFKFNKIWGKLLDEIELLLVRYINDPELISSNNGSIKPINGATNNAPTLPKRKNPKIFSLEYNIEDNSSVKDQAFELKALLKDIFPGFSVSSNMDLDSIYVKDESFEQDEPLVPPSVFNMKVILDPFLLFTQSTSTIVPSVLTQNTISSLTFFDDYMNKSFLPKIQMTMDYLFTVEVESNNPYALELSDENHNIFKTALDFQRLFYNLLNVFNTANTFREKISYCILDLLNHFYNYYLGLFNSLIGTSDRHLTRKIITAWLQNGILMDQEQKILNGDETLFHEESIELFKEIPHFYQAGKGLSKSDLFNNLTLDTILQFSASVLWILNWLPGLKKAINIDEVSQEPMLDADRLRSSWTFSESMDLNYSNPSSSPNSLGNLKILLDDKASKKFDETIDGFKTLKFKLITILRFNIRALCIYDIGSFFQNTKIWNMDVGSIELDQNIASLISELRRTESKLKQQLPEKEKNSIFIGLDIVNNYALIKGAKSIKVLNHNGIKKMLRNVNVLQHAYRNLSSEPSKINMNVTMNFYSLCGSSEAELFEYIKDNELPHCSVEDLKTILRLQFSEEMHRQLKRQSTSSTKGSIKPSNKRYTEALEKLSNLEKEQSKEGARTKIGKLKSKLNAVHTANEK

How the values were obtained:
Sec3 = molecular target: T1, Sec3; assay: […]
Sec8 = molecular target: B3; assay: […]

Binder | binding result (Sec3) | binding result (Sec8)
B1 | binds | binds
B2 |  | binds
B3 | binds | 

Source: publication PMC5971111 (Nature structural & molecular biology, 2018)
